According to patent US20240270841A1 (LG CHEM, published 2024):

B1: anti-LILRB1 antibody D1 (antibody, human IgG4 S228P, V domains shown)
VH: EVQLVQSGAEVKKPGASVKVSCKASGYTFTSYGISWVRQAPGQGLEWMGWINPNSGGTNYAQKFQGRVTMTRDTSISTAYMELSRLRSDDTAVYYCASRGVDEGDYWGQGTMVTVSS
VL: ETTLTQSPAFMSATPGDKVNISCKASQDIDDDMNWYQQKPGEAAISIIQEASTLVPGIPPRFSGSGYGTDFTLTINNIESEDAAYYFCLQHDKFPYTFGQGTKLEIKR
notes: human IgG4, kappa light chain; also called Antibody clone D1
B2: anti-LILRB1 antibody D3 (antibody, human IgG4 S228P, V domains shown)
VH: EVQLLESGGGVVQPGRSLRLSCAASGSTFSSYAMSWVRQAPGKGLEWVSAISGSGGSTYYADSVKGRFTISRDNSKNTLYLQMNSLRAEDTAVYYCAKDRGSYGYYYGMDVWGQGTMVTVSS
VL: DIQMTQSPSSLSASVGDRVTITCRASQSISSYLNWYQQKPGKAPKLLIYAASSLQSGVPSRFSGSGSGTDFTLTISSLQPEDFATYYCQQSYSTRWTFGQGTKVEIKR
notes: human IgG4; also called Antibody clone D3
B3: anti-LILRB1 antibody B12 (antibody, V domains shown)
VH: QVQLVQSGAEVKKPGASVKVSCKASGYTFTGYYMHWVRQAPGQGLEWMGWINPNSGGTNYAQKFQGRVTITADESTSTAYMELSSLRSEDTAVYYCTRAGASIVGATALDYWGQGTLVTVSS
VL: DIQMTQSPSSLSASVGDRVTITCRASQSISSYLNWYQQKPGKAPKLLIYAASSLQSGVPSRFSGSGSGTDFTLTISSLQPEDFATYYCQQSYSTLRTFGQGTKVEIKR
notes: human IgG4, kappa light chain; also called Antibody clone B12
B4: anti-LILRB1 antibody F11 (antibody, human IgG4 S228P, V domains shown)
VH: EVQLVESGGGLVQPGGSLKLSCAASGFTFSSYAMSWVRRAPGKGLEWVSTISGSGDSTYYADSVKGRFTISRDNSKNTLYLQMNNLRAEDTAVYYCAREWELGDAFDIWGRGTLVTVSS
VL: QSVLTQPPSTSGTPGQTFSIFCSGSSSNIGTNTVNWYQQLPGTAPKLLIYSNDQRPSGVPDRFSGSKSGTSASLAISGLQSEDEADYYCETWDDSLKGPVFGGGTKVTVLG
notes: human IgG4, lambda light chain; also called Antibody clone F11
B5: anti-LILRB1 antibody A11 (antibody, human IgG4 S228P, V domains shown)
VH: EVQLLESGGGLEQPGGFLRLSCAASGFSFTSYAMTWVRQAPGKGLEWVSGISSDGTTTTYADSVRGRFTISRDNAKNTVYLQMNSLRDEDTAVYYCARDQLLGWDALNVWGQGTMVTVSS
VL: not shown
notes: human IgG4, kappa light chain; also called Antibody clone A11
B6: anti-LILRB1 antibody E6 (antibody, human IgG4 S228P, V domains shown)
VH: QVQLVQSGAEVKKPGASVKVSCKASGYTFTTYDITWVRQAPGQGLEWMGWMNPNSGNSRSAQKFQGRVSMTSDSSISTAYMELSSLRSEDTAVYYCATGDYSGVVLTATALDYWGQGTLVTVSS
VL: NFMLTQPHSVSESPGKTVTLSCTGSSGNIASNYVQWYQHRPGSAPTTVIYRDDQRPSGVPDRFSGSIDSSSNSASLTISGLRPEDEADYYCQSYDSSSWVFGGGTKLTVLG
notes: human IgG4, lambda light chain; also called Antibody clone E6
B7: anti-LILRB1 antibody B9 (antibody, V domains shown)
VH: QVQLVESGAEVKKPGSSVKVSCKASGGTFSSYAISWVRQAPGQGLEWMGGIIPIFGTANYAQKFQGRVTITADESTSTAYMELSSLRSEDTAVYYCARGEIAVAQNWDYYGMDVWGQGTLVTVSS
VL: DIQMTQSPSSLSASVGDRVTITCRASQSISRYLNWYQQKPGKAPKLLIYGASSLQSGVPSRFSGSGSGTDFTLTISSLQPEDFATYHCQQAYGFPLTLGGGTKVEIKR
notes: human IgG4, kappa light chain; also called Antibody clone B9
B8: anti-LILRB1 antibody E12 (antibody, human IgG4 S228P, V domains shown)
VH: QVQLVESGGGLVQPGGSLRLSCAASGFTFSSYAMHWVRQAPGKGLEWVAVISYDGSNKYYADSVKGRFTISRDNSKNTLYLQMNSLRAEDTAVYYCARERGSGMDVWGQGTLVTVSS
VL: SYELTQDPAVSVALGQTVRITCQGDSLRSYYASWYQQKSGQAPVLVIYGKEKRPSGIPDRFSGSSSGNTASLTITGARAEDEADYYCNSRGSTTDYMVFGGGTQLTVLG
notes: human IgG4, lambda light chain; also called Antibody clone E12
B9: anti-LILRB1 antibody E9 (antibody, human IgG4 S228P, V domains shown)
VH: QVQLVESGGGLVQPGRSLRLSCAASGFTFSSYGMHWVRQAPGKGLEWVANIKQDGSEKYYVDSVKGRFTISRDNAKNTLYLQMNSLRAEDTAVYYCAREDRIAAAGMRELDYWGQGTLVTVSS
VL: QSELTQLPSASETPGQRVTISCSGSSSNIGNNYVYWYQQLPGTAPKLLIYRNNQRPSGVPDRFSGSKSGTSASLAISGLRSEDEADYYCAAWDDSLSGWVFGGGTKLTVLG
notes: human IgG4, lambda light chain; also called Antibody clone E9

The binders below were run against T1, human LILRB1 protein (LILRB1-His, RnD systems Cat. No. 8989-T2) (human, UniProt Q8NHL6 24-458) (assay: SPR (Biacore T200), antibody captured by anti-human IgG (Fc), LILRB1-His injected).
T1 construct: Bought protein; also called human LILRB1-His; not shown: His tag
T1 sequence (Q8NHL6 24-458 limits assumed): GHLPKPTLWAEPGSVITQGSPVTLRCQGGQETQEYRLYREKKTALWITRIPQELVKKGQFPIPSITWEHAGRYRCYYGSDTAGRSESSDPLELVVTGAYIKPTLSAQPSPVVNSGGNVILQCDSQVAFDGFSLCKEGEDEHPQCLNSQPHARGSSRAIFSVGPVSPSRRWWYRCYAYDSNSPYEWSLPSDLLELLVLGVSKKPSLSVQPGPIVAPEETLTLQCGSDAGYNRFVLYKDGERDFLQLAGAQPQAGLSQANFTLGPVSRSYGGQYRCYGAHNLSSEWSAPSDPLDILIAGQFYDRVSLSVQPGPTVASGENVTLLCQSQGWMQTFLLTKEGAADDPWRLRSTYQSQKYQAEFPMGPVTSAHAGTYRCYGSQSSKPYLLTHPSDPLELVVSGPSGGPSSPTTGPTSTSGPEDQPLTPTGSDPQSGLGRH
Description: The binding affinities of the 93 antibodies, which were selected in Example 1.3, to the antigen, LILRB1, were measured using Biacore T200 (GE healthcare). An anti-human IgG (Fc) antibody (GE healthcare, Cat. No. BR-1008-39, final concentration of 25 μg/mL) was flowed at the flow rate of 5 μL/min for 360 seconds to be immobilized at 5000-7000 RU on Series S Sensor Chip CM5 (GE healthcare, Cat. No. BR-1005-30) using Amine Coupling Kit (GE healthcare, Cat. No. BR-1000-508).

Row | Kd [nM] | koff [s⁻¹] | kon [M⁻¹ s⁻¹] | Binder
1 | 49.3 | 0.00574 | 116000 | B1
2 | 180 | 0.000558 | 3110 | B2
3 | 7.84 | 0.00144 | 184000 | B3
4 | 2.26 | 0.000615 | 272000 | B4
5 | 5450 | 0.000981 | 180 | B5
6 | 60.7 | 0.00163 | 26800 | B6
7 | 66.1 | 0.000616 | 9320 | B7
8 | 44 | 0.0103 | 233000 | B8
9 | 99.9 | 0.00105 | 10500 | B9
